{"source": "patent US7037492", "biological_target": "IL-1 receptors (on articular chondrocytes)", "assay": "cell-based or functional assay", "data": [{"substance": "human interleukin-1 receptor antagonist protein (IRAP) (from UniProt P18510 26-177) (ligand)", "values": [{"measurement": "inhibition of gelatinase production by IL-1 treated chondrocytes, 5 U/ml IL-1, first culture's conditioned medium", "result": 100, "unit": "%"}, {"measurement": "inhibition of gelatinase production by IL-1 treated chondrocytes, 5 U/ml IL-1, second culture's conditioned medium", "result": 41, "unit": "%"}, {"measurement": "inhibition of gelatinase production by IL-1 treated chondrocytes, 10 U/ml IL-1, first culture's conditioned medium", "result": 38, "unit": "%"}, {"measurement": "inhibition of gelatinase production by IL-1 treated chondrocytes, 10 U/ml IL-1, second culture's conditioned medium", "result": 18, "unit": "%"}]}]}
